# Source: patent publication US10400022B2, “Neuropilin-1 specific binding peptide, fusion protein fused with same, and use thereof” (AJOU UNIVERSITY INDUSTRY-ACADEMIC COOPERATION FOUNDATION, priority 2015, dated 2019)
# Where no end group is shown, it is not given here.
# Experiments:
# [1] = system: E-cadherin; assay: Western blot of E-cadherin in FaDu cells; format: cell-based; settings: human head and neck cancer FaDu cells
# Procedure: Specifically, 5×10^5 HUVEC cells were seeded into each well of a 6-well plate and incubated for 24 hours, and then treated with 0.1 μM of the fusion protein of the antibody heavy-chain constant Fc region and the selected peptide that binds specifically to NRP1, for 10 minutes, followed by Western blot analysis. After SDS-PAGE, the gel was transferred to a PVDF membrane, and detection was performed using primary antibodies (SantaCruz) that recognize VE-cadherin and β-actin and using HRP-conjugated secondary antibody (SantaCruz), and analysis was performed using ImageQuant LAS4000 mini (GE Healthcare).
# In order to examine whether the Fc-TPP1, Fc-TPP8 and Fc-TPP11 fusion proteins also have an enhanced ability to penetrate cancer cells, a change in E-cadherin in human head and neck cancer FaDu cells expressing NRP1 was analyzed by Western blot analysis under the same conditions as described above.
# [2] = system: A431 cells expressing neuropilin-1; assay: Immunohistochemistry of tumor tissue penetration in A431 xenograft; format: in vivo, Balb/c nude mice; settings: 10 mg/kg intravenously, 15 hours after injection
# Procedure: At 15 hours after injection, the tumor was extracted from the mice and subjected to immunohistochemistry. The extracted tumor tissue was sectioned to a thickness of 20 μm by a frozen-section method, and the blood vessels were stained with the primary antibody CD31 antibody (BD Pharmingen) and TRITC (red fluorescence)-labeled secondary antibody that recognizes the same. In addition, to observe the distribution of the Fc-TPP1, Fc-TPP8 and Fc-TPP11 fusion proteins in the tissue, an FITC (green fluorescence)-labeled antibody that recognizes Fc was used.
# [3] = system: VE-cadherin; assay: Western blot of VE-cadherin in HUVEC; format: cell-based, human
# Procedure: Specifically, 5×10^5 HUVEC cells were seeded into each well of a 6-well plate and incubated for 24 hours, […] constant Fc region and the selected peptide that binds specifically to NRP1, for 10 minutes, followed by Western blot analysis. After SDS-PAGE, the gel was transferred to a PVDF membrane, and detection was performed using primary antibodies (SantaCruz) that recognize VE-cadherin and β-actin and using HRP-conjugated secondary antibody (SantaCruz), and analysis was performed using ImageQuant LAS4000 mini (GE Healthcare).
# [4] = system: VEGF165A-induced angiogenesis; assay: In vivo matrigel plug assay; parameters: species or system Balb/c nude mice; settings: 200 μg in matrigel plug with A431 cells, 8 days
# Procedure: Additionally, in order to examine anti-angiogenesis activity in vivo, a matrigel plug assay was performed. […] After 8 days, the matrigel plug was extracted, imaged (FIG. 15(B)), and then sectioned to a thickness of 20 μm by a frozen-section method, and subjected to immunohistochemistry. The blood vessels were stained with the primary antibody CD31 and a TRITC (red fluorescence)-labeled secondary antibody recognizing the same, and the density of the blood vessels was measured.
# [5] = system: human umbilical vein endothelial cells (HUVECs); assay: Transwell assay of penetration of vascular endothelial cells (dextran-FITC); format: cell-based; settings: 1 μM for 30 minutes (VEGF165A about 1.3 nM); dextran-FITC fluorescence in lower chamber
# Procedure: Specifically, 5×10^4 human umbilical vein endothelial cells (HUVECs) were seeded into the upper chamber of a transwell plate (Corning) and incubated in EGM2 for 3 days under the conditions of 37° C. and 5% CO2. […] Then, 50 μl of dextran-FITC (Sigma) was added to the upper chamber. After 30 minutes, based on the principle according to which the fluorescent substance would be observed when penetration into the vascular endothelial cells was increased, the medium was sampled from the lower chamber and the fluorescence thereof was measured.
# [6] = molecular target: T1, NRP1 displayed on the human umbilical vein endothelial cell (HUVEC) surface (Homo sapiens, UniProt O14786); assay: Confocal co-localization with NRP1 on HUVEC surface; format: cell-based; settings: 1 μM, 30 minutes, 4° C., confocal microscopy
# T1 construct: endogenous in cells; host or cells: HUVEC
# Procedure: In an experiment for biological identification of the peptides that binds specifically to NRP1, human umbilical vein endothelial cells (HUVECs) overexpressing NRP1 were used.
# Specifically, 5×10^4 HUVEC cells were added to each well of a 24-well plate and incubated in 0.5 ml of EGM2 (Endothelial growth medium, Promocell) medium for 24 hours under the conditions of 5% CO2 and 37° C. […] Next, the medium was removed, and each well was washed with cold PBS. Then, the fusion protein wherein the selected peptide that binds specifically to NRP1 is fused to the antibody heavy-chain constant region was stained with FITC (green fluorescence)-labeled antibody (Sigma) that specifically recognizes Fc, and NRP1 was stained with primary antibody (Abcam) that recognizes NRP1 and with TRITC (red fluorescence)-labeled secondary antibody. The nucleus was stained (blue fluorescence) with DAPI and analyzed by confocal microscopy.
# [7] = molecular target: T2, NRP1-b1b2 (273-586) protein (Homo sapiens, UniProt O14786); assay: Competitive ELISA with VEGF165A / RPARPAR on NRP1-b1b2; format: binding
# T2 construct: made in house
# Procedure: In order to evaluate competitive binding of the TPP11 peptide, which binds specifically to NRP1 without binding to NRP2, and VEGF165A and a RPARPAR peptide, known to bind to the arginine-binding pocket of the NRP1-b1 domain, competitive ELISA was performed.
# Specifically, binding NRP1-b1b2 (273-586) protein to each well of a 96-well EIA/RIA plate or a 96-well EIA/RIA black plate (COSTAR Corning In., USA) at room temperature for […], is followed by washing three times with 0.1% PBST (0.1% Tween20, pH 7.4, 137 mM NaCl, 10 mM Phosphate, 2.7 mM KCl, SIGMA-ALDRICH co., USA) for 10 minutes. After binding with 5% skim milk (5% Skim milk, pH 7.4, 137 mM NaCl, 10 mM Phosphate, 2.7 mM KCl, SIGMA-ALDRICH co., USA) for 1 hour, each well was washed three times with 0.1% PBST (0.1% Tween20, pH 7.4, 137 mM NaCl, 10 mM Phosphate, 2.7 mM KCl, SIGMA-ALDRICH co., USA) for 10 minutes. […] Then, each mixture was incubated with AP-conjugated anti-human antibody (alkaline phosphatase-conjugated anti-human mAb, Sigma, USA), and then reacted with pNPP ([…], SIGMA-ALDRICH co., USA), and the absorbance at 405 nm was measured.
# [8] = molecular target: T3, biotinylated NRP1-b1b2 (Homo sapiens, UniProt O14786); assay: FACS of yeast surface-displayed clones binding biotinylated NRP1-b1b2; settings: yeast surface display, compared with A22p
# T3 construct: biotin (chemical label on amines, Sulfo-NHS-LC-biotin); made in house
# Source text: […] In addition, in the MACS and FACS processes, non-biotinylated NRP2-b1b2 was used as a competitive protein for biotinylated NRP1-b1b2 at a 10-fold higher concentration, and individual clones that bind to NRP1-b1b2 were selected.
# [9] = molecular target: T2, NRP1-b1b2 (273-586) protein; assay: ELISA binding to NRP1-b1b2; settings: synthetic peptide not fused to Fc, 100 nM
# Procedure: The binding affinities of purified Fc-TPP1, Fc-TPP8 and Fc-TPP11 fusion proteins for the b1b2 domains of NRP1 and NRP2 were analyzed by ELISA (Enzyme Linked Immunosorbent Assay).
# To examine specificity for NRP1, the control VEGF165A and Fc, A22p, and each of the fusion proteins wherein the selected peptide that binds specifically to NRP1 is fused to the antibody heavy-chain constant Fc region, was biotinylated using a NHS-biotin kit (SIGMA-ALDRICH co., USA).
# 1 μg of each of NRP1-b1b2 (273-586) protein, NRP2-b1b2 (275-595) protein and the control group VEGFR2 (46-753) was immobilized in each well of a 96-well EIA/RIA plate (COSTAR Corning In., USA) at room temperature for 1 hour, and then washed three times with 0.1% PBST (0.1% Tween20, pH 7.4, 137 mM NaCl, 10 mM Phosphate, 2.7 mM KCl, SIGMA-ALDRICH co., USA) for 10 minutes. After binding with 5% skim milk (5% Skim milk, pH 7.4, 137 mM NaCl, 10 mM Phosphate, 2.7 mM KCl, SIGMA-ALDRICH co., USA) for 1 hour, each well was washed three times with 0.1% PBST (0.1% Tween20, pH 7.4, 137 mM NaCl, 10 mM Phosphate, 2.7 mM KCl, SIGMA-ALDRICH co., USA) for 10 minutes. […] Each well was bound with AP-conjugated anti-biotin antibody (alkaline phosphatase-conjugated anti-biotin mAb, Sigma, USA), and then reacted with pNPP ([…], SIGMA-ALDRICH co., USA), and the absorbance at 405 nm was measured.
substance,measurement,setting,value
"Fc-A22p: control Fc fusion of A22p peptide (HTPGNSNKWKHLQENKKGRPRR) that binds to both NRP1 and NRP2 (also: fused to Fc, not in chain)",change in E-cadherin,[1],induced a decrease in E-cadherin
same,tumor tissue accumulation and penetration,[2],selectively reached tumor tissue
same,change in VE-cadherin at 1 μM,[3]; 1 μM,VE-cadherin significantly decreased
same,change in VE-cadherin,[3]; 10 minutes,a decrease in VE-cadherin was observed
same,"VEGF165A-induced angiogenesis (density of blood vessels, CD31)",[4],inhibited VEGF165A-induced angiogenesis in living mice
same,ability to penetrate vascular endothelial cells,[5],had an increased ability to penetrate vascular endothelial cells
same,binding to NRP1 on the HUVEC cell surface,[6],did bind to NRP1 on the HUVEC cell surface
same,binding to NRP1-b1b2 competitively with VEGF165A,[7]; VEGF165A 25 nM to 0.02 nM,overlapped a portion of NRP1 to which VEGF165A did bind
"TPP1: NRP1-targeting peptide HTPGNSNQFVLTSTRPPR, SEQ ID NO: 1 (Synthetic construct (TPP1))",binding to 100 nM biotinylated NRP1-b1b2 (mean fluorescence intensity),[8],showed higher mean fluorescence intensities
"TPP8: NRP1-targeting peptide HTPGIATRTPR, SEQ ID NO: 2 (Synthetic construct (TPP8))",binding to 100 nM biotinylated NRP1-b1b2 (mean fluorescence intensity),[8],showed higher mean fluorescence intensities
"TPP11: NRP1-targeting peptide HTPGNSKPTRTPRR, SEQ ID NO: 3 (Synthetic construct (TPP11))",lower affinity than Fc-TPP11 for NRP1-b1b2 protein,[9],at least 100 fold
same,binding to 100 nM biotinylated NRP1-b1b2 (mean fluorescence intensity),[8],showed higher mean fluorescence intensities
same,competitive binding of synthesized peptide with RPARPAR peptide and VEGF165A,[7],inhibited the binding of the RPARPAR peptide and VEGF165 to NRP1
